{"source": "paper PMC8144435", "target": "Mayaro virus (MAYV) capsid (C) protein, strain IQT4235 (Mayaro virus (strain IQT4235))", "experiment": "cryo-EM structure; purified mature infectious MAYV virions (5x10^10 PFU/mL, from Vero CCL81 cells) vitrified on Quantifoil R2/2 grids; 300 kV Titan Krios, single particle analysis with icosahedral symmetry, global resolution 4.4 Å; atomic model from a homology model on CHIKV (PDB 6NK5) refined into the map", "note": "Where “and” joins values, the source holds several entries; their conditions need not be identical. Equal entries are not always repeated.", "data": [{"substance": "Mayaro virus (MAYV) capsid (C) protein, strain IQT4235 (natural protein)", "values": [{"measurement": "stoichiometry N", "result": "6 and 5"}]}]}
